Where only a bound is given, the exact number is not on record here.

The target in assay [1] is human GATA2 (human) (UniProt P23769). Kind of assay: cell-based or functional assay.
The target in assay [2] is human TFII-I (human) (UniProt P78347). Description: cell-based or functional assay.
Chain of human TFII-I (human) (P78347 2-998 limits assumed): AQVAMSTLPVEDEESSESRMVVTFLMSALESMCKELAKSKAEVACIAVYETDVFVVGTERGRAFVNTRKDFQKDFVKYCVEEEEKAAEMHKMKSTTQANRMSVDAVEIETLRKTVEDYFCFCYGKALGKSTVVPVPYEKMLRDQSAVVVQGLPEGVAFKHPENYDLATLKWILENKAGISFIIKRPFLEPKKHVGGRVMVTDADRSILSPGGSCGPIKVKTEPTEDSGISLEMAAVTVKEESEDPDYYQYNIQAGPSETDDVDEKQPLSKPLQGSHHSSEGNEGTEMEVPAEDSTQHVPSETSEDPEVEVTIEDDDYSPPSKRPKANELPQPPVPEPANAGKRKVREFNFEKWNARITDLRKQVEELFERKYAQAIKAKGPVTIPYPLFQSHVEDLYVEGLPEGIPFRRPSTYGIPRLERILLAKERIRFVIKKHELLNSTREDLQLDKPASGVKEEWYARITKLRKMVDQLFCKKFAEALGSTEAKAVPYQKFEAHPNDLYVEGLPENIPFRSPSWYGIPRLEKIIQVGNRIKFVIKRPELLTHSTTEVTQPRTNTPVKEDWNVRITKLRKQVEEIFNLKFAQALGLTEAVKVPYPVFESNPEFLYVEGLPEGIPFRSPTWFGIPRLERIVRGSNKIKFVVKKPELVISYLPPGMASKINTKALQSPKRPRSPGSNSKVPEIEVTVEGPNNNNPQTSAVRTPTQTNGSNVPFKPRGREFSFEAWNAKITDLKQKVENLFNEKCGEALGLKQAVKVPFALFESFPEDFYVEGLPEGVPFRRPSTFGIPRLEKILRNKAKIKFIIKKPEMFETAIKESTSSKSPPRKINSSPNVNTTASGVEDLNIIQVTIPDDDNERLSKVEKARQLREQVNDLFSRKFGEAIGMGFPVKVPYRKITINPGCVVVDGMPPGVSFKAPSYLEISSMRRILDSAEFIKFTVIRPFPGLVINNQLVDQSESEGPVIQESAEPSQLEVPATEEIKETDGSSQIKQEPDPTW

Chain of human GATA2 (human) (P23769 whole entry): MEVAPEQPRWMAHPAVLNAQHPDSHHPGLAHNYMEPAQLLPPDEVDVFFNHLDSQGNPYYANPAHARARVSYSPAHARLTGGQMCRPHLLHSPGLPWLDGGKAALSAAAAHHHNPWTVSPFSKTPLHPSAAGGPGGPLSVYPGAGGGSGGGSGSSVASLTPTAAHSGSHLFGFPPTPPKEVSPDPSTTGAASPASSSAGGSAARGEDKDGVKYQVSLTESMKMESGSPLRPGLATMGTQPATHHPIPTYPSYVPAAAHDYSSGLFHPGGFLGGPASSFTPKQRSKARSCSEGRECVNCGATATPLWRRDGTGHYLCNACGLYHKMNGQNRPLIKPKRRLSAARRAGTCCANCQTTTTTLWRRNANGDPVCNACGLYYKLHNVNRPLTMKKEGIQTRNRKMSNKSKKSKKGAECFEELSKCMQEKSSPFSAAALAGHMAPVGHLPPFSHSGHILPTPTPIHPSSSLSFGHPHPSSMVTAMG

B1: human p190RhoGAP (protein)
chain: MMMARKQDVRIPTYNISVVGLSGTEKEKGQCGIGKSCLCNRFVRPSADEFHLDHTSVLSTSDFGGRVVNNDHFLYWGEVSRSLEDCVECKMHIVEQTEFIDDQTFQPHRSTALQPYIKRAAATKLASAEKLMYFCTDQLGLEQDFEQKQMPDGKLLVDGFLLGIDVSRGMNRNFDDQLKFVSNLYNQLAKTKKPIVVVLTKCDEGVERYIRDAHTFALSKKNLQVVETSARSNVNVDLAFSTLVQLIDKSRGKTKIIPYFEALKQQSQQIATAKDKYEWLVSRIVKNHNENWLSVSRKMQASPEYQDYVYLEGTQKAKKLFLQHIHRLKHEHIERRRKLYLAALPLAFEALIPNLDEIDHLSCIKAKKLLETKPEFLKWFVVLEETPWDATSHIDNMENERIPFDLMDTVPAEQLYEAHLEKLRNERKRVEMRRAFKENLETSPFITPGKPWEEARSFIMNEDFYQWLEESVYMDIYGKHQKQIIDKAKEEFQELLLEYSELFYELELDAKPSKEKMGVIQDVLGEEQRFKALQKLQAERDALILKHIHFVYHPTKETCPSCPACVDAKIEHLISSRFIRPSDRNQKNSLSDPNIDRINLVILGKDGLARELANEIRALCTNDDKYVIDGKMYELSLRPIEGNVRLPVNSFQTPTFQPHGCLCLYNSKESLSYVVESIEKSRESTLGRRDNHLVHLPLTLILVNKRGDTSGETLHSLIQQGQQIASKLQCVFLDPASAGIGYGRNINEKQISQVLKGLLDSKRNLNLVSSTASIKDLADVDLRIVMCLMCGDPFSADDILFPVLQSQTCKSSHCGSNNSVLLELPIGLHKKRIELSVLSYHSSFSIRKSRLVHGYIVFYSAKRKASLAMLRAFLCEVQDIIPIQLVALTDGAVDVLDNDLSREQLTEGEEIAQEIDGRFTSIPCSQPQHKLEIFHPFFKDVVEKKNIIEATHMYDNAAEACSTTEEVFNSPRAGSPLCNSNLQDSEEDIEPSYSLFREDTSLPSLSKDHSKLSMELEGNDGLSFIMSNFESKLNNKVPPPVKPKPPVHFEITKGDLSYLDQGHRDGQRKSVSSSPWLPQDGFDPSDYAEPMDAVVKPRNEEENIYSVPHDSTQGKIITIRNINKAQSNGSGNGSDSEMDTSSLERGRKVSIVSKPVLYRTRCTRLGRFASYRTSFSVGSDDELGPIRKKEEDQASQGYKGDNAVIPYETDEDPRRRNILRSLRRNTKKPKPKPRPSITKATWESNYFGVPLTTVVTPEKPIPIFIERCIEYIEATGLSTEGIYRVSGNKSEMESLQRQFDQDHNLDLAEKDFTVNTVAGAMKSFFSELPDPLVPYNMQIDLVEAHKINDREQKLHALKEVLKKFPKENHEVFKYVISHLNKVSHNNKVNLMTSENLSICFWPTLMRPDFSTMDALTATRTYQTIIELFIQQCPFFFYNRPITEPPGARPSSPSAVASTVPFLTSTPVTSQPSPPQSPPPTPQSPMQPLLPSQLQAEHTL
Consider B1, for which the GATA2 levels in the nucleus of p190RhoGAP knockdown cells relative to control cells (immunoblotting, fluorescence microscopy) in assay [1] was more than 10 fold. The same molecule registered a TFII-I protein levels in the nuclear fraction of p190RhoGAP knockdown HMVE cells (immunoblot, fluorescence microscopy) in assay [2] of 1.5 fold.
